Laboratory results from the DeepSol protein solubility set.

Assay: soluble on expression in E. coli; label from the status in PepcDB or PDB records

Row | Sequence | soluble on expression in E. coli
1 | MKIVIGTKIKEQRQQHEWSQQTVAERLHVSRQTISKWELGKSYPDLELLVALSKLFSVSTDELLGLSRRPVQRPWWQLLLRKRSRTDMTVKWYSGGQDRARVAVGIISDLVANLNTTNEQPLRQLLATYYQELLEQRTGSVLGVFDRMNLDISKCLRQQQIKLSPENEQLMQQLVGLNMIYYR | not soluble
2 | MGSDKIHHHHHHMTDSRQRLLVFAPTRRVASETFVRANLAGLPFEVSAYFGDEFPLDQPGRFAYGLGVLLSKIFTRLGWLRLAELPAAFVAWILIRRHRPDVVLAEFGFHAVRVMQAAARVDVPFVVHFRGSDLSANRRLGVLRSRYRRLVSIASGVVCKSRPMATTLEQLGASPSTILISPSGANPALFSVGDPALAAPVFLAVGRFVAKKGPLQTIRAFAGQPQGELWMVGEGPLLAEARRLVQALQVQDRVRFLGVKTQSEVAALMRQARVFVQHSQIAPDGDSEGNPVSVMEAQLCGLPVVATLHAGIPDVVLDGSTGLLVEENDVDGMAEAMTRLMADPNLAAQFGLAGRERVLAAFTLEHHLQDLTRFLQQQIRSTTHF | not soluble
3 | MGSDKIHHHHHHMKIYCSKDSLITGVNTVQKAVSNKNTLPVLQGIMIRAEGQSLIFEATDLEIGIRCVVPAQVEKEGVVVLPSRLFSDLVCKLPDVLIELELQNDVINIHYNESDLSLRGYDPEEFPLLPDLFDAETFNLPVSIFKTMIKQTIFACSAEESRPVFTGCLLQIEDGSLRLIATDTHRLAYRIAEISNPEQIKFQGIIPAKTLGEIYRLLRDEDENLFIRFNQAQIVFQFGAVHLLSRLIEGQFPNYKQVIPQSCQTKVLLSARLFQDSVERASLLARDGSHTSIIKLSVDTERLSIDQTSELGKISEQMEVKKEGNDVKIAFNSKFLLDVLKIIDSEEIVFELSGSYSPGIIRPVDDPNYLYLALPVRTS | not soluble
4 | MAQKILVEQVVKRKAIVVQPKDTVDRVAKILSRNKAGSAVVMEGDEILGVVTERDILDKVVAKGKNPKEVKVEEIMTKNPVKIEYDYDIEDVIELMTEKGVRRVLVTKFGKPIGFVTAADILAALASHNHEEEEEEREEESEVYGICEVCGQYGALYKVYHEGRELWVCETCKDLIEGR | soluble
5 | TMNPLYSVKRAEKRRNVVLGRMLEVGKITQQQYEQAKAETVTATFYGTALEFRADYVTEMIRQEMVKRYGEDVAYNKGF | not soluble
6 | MVKKITVYTAFGQFLKMVELQMEQEMEKMNEIETDKLPIDHQLSDYQNNIESGNDRQVQSCPVDVSIPKEVMKCASCPLLCFNCSVQMPVSPVPTTIESRKINETTQLMMEFWKIVASKSEEEKLPSLFENVEGLFSVPFSTFGTWDDDTLSGVTSLNFEKSDEQLSEQDDDKTTVWSSNFPSAHVLTVYENSEQKTDEMADDEMSDTTSSFLSTLSTTMSAQVPALHLLQRVQLQRSVIKKQKKIIDSFSELQNLNKKLADLRKKHRD | not soluble
7 | MAHHHHHHMEKYKNILEKLEWYKNKSSEKYEFGIYEIDKREVFITTKYSYGFVNNKPLLPGHILLTTLKKKKHYNDLDIEEIIDINLLCNFMCYIMGNLFNTTDFSIAIQDGKEAGQTVDHVHIHIIPRKINDYKNNDNIYNDMNKINLGYGKNIICNSCNNTINVCSQNEIERNFKLEEFNTSIRSIEQMEEEANLIKSYINEKFSS | not soluble
8 | MSLNDTFVVVDLETTGHSVKKGGRIIQIGMTFIKKRQIVDHFESFVNPGQLIDRQIQQLTHISQKDVQNAPYFEEIAPLLQNLLQNTVIIAHNVNFDYPYLNDEFERTGFPLLKSAAIDTVQLAQIMFPTAPGYRLLDLTTYLNITLKNAHRANADAHATALLFLKFWKKLEELPDITLKQLQQGDWPLLRQTQQFLKLVHSKNEGHHHHHH | not soluble
9 | MGHHHHHHSHMKFEAFKIVPVGYIRKEKNVFIEILPEFREGMEGLREGDWIKLILWFHKSDTPELRRILKVHPHGNPENPLTGVFATRSPFRPNPYTVKVHKIEGNRIYIDWIDAEDGTPVSDIKIFPERYDCPKENYQSTSRLKS | soluble
10 | MILDTSVIIRIFRDRNFFEVLKERIDDDVKITSVTAYELQRGAVYIMLKHGRDYEFKLIRDFLEEVEILSFTPKDSEISAMIWAKLREKGYELNDADIMISAVSIRENEKLVTLDRDFEYISRVSELDVDILEEEL | not soluble
11 | MIFTSGANKLNDNRNVRTKISSNRQSIKTAPTKAAEIPEYLQLYQTPPGDDISLTEFDDIAMERLKLLKSFENLKDSVSLYNDEFKDKFRKLCDGTKLIVFPDQKPPHQEEVYELWRRDNIGHFILRLAFCRTPENQKWLTQIEGDFLRFRLRQEREQVLDSALANVNFTIEKLGYTEKQAMIEDLEAACQFNLFEAPNKTFYKVDFIDAIELIRRGSVHLKKGFAYFPFDDLVTILVTKMKNNMMAAMARSFKHLAILEEEGRLLPRLSLLSNNAYSGKDYNGEQPDGSIIVTRHMIDKLSRRSFAPCMKQMHNHLRVNHHLKYGARRQYGLFLKGIGLSLDEAIAMMRDEFTKKITSDKFDKEYGYNIRYMYGKEGRRVAQTAMSCATIILRNPPSAVDCHGCPFRHSEKQVLKQKLGSDAILKKEQIERIAELAELNQYDKACTRYFEFMHNLEEGGLGQLITHPNQFYEESQKIVAERIAAKQESQEAPAPKIEKMDTE | not soluble
12 | MHHHHHHSSGVDLGTENLYFQSNAMMKAYQREFIEFALEKQVLKFGEFTLKSGRKSPYFFNAGLFNTGRDLARLGRFYAAALVDSGIEFDVLFGPAYKGIPIATTTAVALADHHDVDTPYCFNRKEAKNHGEGGNLVGSKLEGRVMLVDDVITAGTAIRESMELIQANKADLAGVLVAIDRQEKGKGELSAIQEVERDFGCAVISIVSLTDLITYLEQQGNNTEHLEAVKAYRAQYGI | soluble
13 | MGSDKIHHHHHHMRLTTKGRFAVTAMIDLALREHSGPVALAAISSRQQISLSYLEQLFGKLRRHELVESTRGPGGGYSLGRKAEEITVADIIVAVDEPIDATGCGGKENCMGEDSGRCMTHDLWASLNTKMIEFLDSISLRKLVDDQLAKGVSIEEAPVKRAISSQPVVKPIKITAPNSVFALGSSFSK | not soluble
14 | PNGDKVHAWYWQSPRRDAPTVLYLHGARWNLNGSAFRMEGWTRMGYSMLAIDYRGFGQSTPLLPSEQSASQDAAAALQELARRQPDPARRFIYGHSLGGAIAIDLAARPDLPPFAGLIVESSFTSIGAMLGTMKWGWVPGATLLVTQPFASVDKLAALTTPMLLLHGTADRVVPHTMSDELYRAAQQVPADLKRLVKIEGASHSGAIRSGRIYEDAVADFVRDAGRGYAGRQGAPTPLTASRPGT | not soluble
15 | MNTIVVAQLQRQFQDYIVSLYQQGFLDNQFSELRKLQDEGTPDFVAEVVSLFFDDCSKLINTMSISLERPDNVDFKQVDSGVHQLKGSSSSLCFVLSVGARRVKNVCISFKECCDVQNREGYSSNSHTNCDNDIWHRCLRCLQQVDYEYKMLKTKLQDLFNVSFKLCENLLVLLLEKQILQAGGTIPQVDIN | soluble
16 | MQNELQTALFQAFDTLNLQRVKTFSVPPVTLCGPGSVSSCGQQAQTRGLKHLFVMADSFLHQAGMTAGLTRSLTVKGIAMTLWPCPVGEPCITDVCAAVAQLRESGCDGVIAFGGGSVLDAAKAVTLLVTNPDSTLAEMSETSVLQPRLPLIAIPTTAGTGSETTNVTVIIDAVSGRKQVLAHASLMPDVAILDAALTEGVPSHVTAMTGIDALTHAIEAYSALNATPFTDSLAIGAIAMIGKSLPKAVGYGHDLAARESMLLASCMAGMAFSSAGLGLCHAMAHQPGAALHIPHGLANAMLLPTVMEFNRMVCRERFSQIGRALRTKKSDDRDAINAVSELIAEVGIGKRLGDVGATSAHYGAWAQAALEDICLRSNPRTASLEQIVGLYAAAQ | soluble
